Assays:
[1] = Thermal stability: residual activity after incubation at 60° C. for one hour; type: biochemical; conditions: crude recombinant enzyme; after incubation at 60° C. for 1 hour
Protocol: Thermal stability of the enzyme was investigated by measuring the activity of the enzyme after incubation at 60° C. for one hour and finding its relative activity supposing that the activity at 60° C. under the reaction conditions (10 minutes) used for determining the optimum temperature in the above 2 shown in Table 2 was 100. As heat treatment conditions, the crude enzyme solution, a buffer (50 mM tris-HCl, pH 7.5), and 2 mM MgCl2 were used to give a total amount of 200 p1 and after retaining at 60° C. for one hour, the reaction mixture was cooled for 10 minutes in ice water. The residual enzyme activity was then measured by the conventional method.
The activity of each of the present enzyme (crude recombinant enzyme) and the crude enzyme of the control enzyme after incubation at 60° C. for 1 hour was measured and a relative activity of it was determined supposing that the activity at 60° C. under the reaction conditions (10 minutes) for determining the optimum temperature in the above 2 shown in Table 2 is 100. The relative activity was used as a heat resistance index of the enzyme. As heat treatment conditions, the crude enzyme solution, a buffer (50 mM tris-HCl, pH 7.5), and 2 mM MgCl2 were used to give a total amount of 200 p1 and after retaining at 60° C. for one hour, the reaction mixture was cooled for 10 minutes in ice water. The residual enzyme activity was measured by the conventional method.

[2] = Ketose 3-epimerase activity ratio (T70/T50) at reaction temperature of 70° C. to 50° C.; type: biochemical; conditions: crude recombinant enzyme; ratio of activity at 70° C. to activity at 50° C., 10 min reaction
Protocol: An enzyme having higher heat resistance than an amino acid substitution-free wild type enzyme can be obtained by introducing mutation into the gene of the ketose 3-epimerase of the present invention and substituting the corresponding amino acid residue with another amino acid residue by a site-directed mutagenesis operation to prepare various amino acid-substituted mutants. The heat resistance is evaluated by two indices, that is, a ketose 3-epimerase activity ratio (T70/T50) at the reaction temperatures of 70° C. to 50° C. and a residual activity after incubation at 60° C. for one hour.
Heat resistance of the present enzyme (crude recombinant enzyme) and the crude enzyme of the control enzyme was investigated by measuring an activity at 70° C. and an activity at 50° C. under the reaction conditions (10 minutes) used for determining the optimum temperature in the above 2 shown in Table 2 and finding their ratio (T70/T50).

B1: Ketose 3-epimerase mutant 7: amino acid-substituted mutant of SEQ ID NO: 1 (protein)
chain: MKIGCHGLVWTGRFDAEGIRYSVQKTKEAGFDLIEFPLMDPFSFDVATAKSALAEHGLSVSASLGLSEATDVSSEDPAIVKAGEELLNRALDVLAELGATDFCGVIYSAMKKYMEPATEQGLSNSKAAVGRVVDRAAGLGINVSLEVVNRYETNVLNTGRQALSYLSDVKRPNLGVHLDTYHMNIEESDMFSPVLDTAEVLKYVHIGESHRGYLGTGSVDFDNFFKALGRIGYDGPVVFESFSSAVVAPDLSRMLGIWRNLWADNEELGAHANAFIRDKLTAIKTIELH
modifications: Arthrobacter histidinolovorans
- Residual activity (%) [1]: 83.1%
- T70/T50 [2]: 2.03

B2: Ketose 3-epimerase mutant 15: amino acid-substituted mutant of SEQ ID NO: 1 (protein)
chain: MKIGCHGLVWTGRFDAEGIRYSVQKTKEAGFDLIEFPLMDPFSFDVATAKSALAEHGLSVSASLGLSEATDVSSEDPAIVKAGEELLNRALDVLAELGATEFCGVIYSAMKKYMEPATEQGLSNSKAAVGRVVDRAAGLGINVSLEVVNRYETNVLNTGRQALSYLSDVKRPNLGVHLDTYHMNIEESDMFSPVLDTAEVLKYVHIGESHRGYLGTGSVDFDNFFKALGRIGYDGPVVFESFSSAVVAPDLSRMLGIWRNLWADNEELGAHANAFIRDKLTAIKTIELH
modifications: Arthrobacter histidinolovorans
- Residual activity (%) [1]: 89.3%
- T70/T50 [2]: 1.90

B3: Ketose 3-epimerase mutant 8: amino acid-substituted mutant of SEQ ID NO: 1 (protein)
chain: MKIGCHGLVWTGRFDAEGIRYSVQKTKEAGFDLIEFPLMDPFSFDVATAKSALAEHGLTASASLGLSEATDVSSEDPAIVKAGEELLNRALDVLAELGATDFCGVIYSAMKKYMEPATEQGLSNSKAAIGRVVDRAAGLGINVSLEVVNRYETNVLNTGRQALSYLSDVKRPNLGVHLDTYHMNIEESDMFSPVLDTAEVLKYVHIGESHRGYLGTGNVDFDNFFKALGRIGYDGPVVFESFSSAVVAPDLSRMLGIWRNLWADNEELGAHANAFIRDKLTAIKTIELH
modifications: Arthrobacter histidinolovorans
- Residual activity (%) [1]: 115.3%
- T70/T50 [2]: 2.03

B4: Ketose 3-epimerase mutant 17: amino acid-substituted mutant of SEQ ID NO: 1 (protein)
chain: MKIGCHGLVWTGRFDAEGIRYSVQKTKEAGFDLIEFPLMDPFSFDVATAKSALAEHGLTASASLGLSEATDVSSEDPAIVKAGEELLNRALDVLAELGATEFCGVIYSAMKKYMEPATEQGLSNSKAAVGRVVDRAAGLGINVSLEVVNRYETNVLNTGRQALSYLSDVKRPNLGVHLDTYHMNIEESDMFSPVLDTAEVLKYVHIGESHRGYLGTGSVDFDNFFKALGRIGYDGPVVFESFSSAVVAPDLSRMLGIWRNLWADNEELGAHANAFIRDKLTAIKTIELH
modifications: Arthrobacter histidinolovorans
- Residual activity (%) [1]: 62.3%
- T70/T50 [2]: 1.89

B5: Ketose 3-epimerase mutant 9: amino acid-substituted mutant of SEQ ID NO: 1 (protein)
chain: MKIGCHGLVWTGRFDAEGIRYSVQKTKEAGFDLIEFPLMDPFSFDVATAKSALAEHGLSVSASLGLSEATDVSSEDPAIVKAGEELLNRALDVLAELGATDFCGVIYSAMKKYMEPATEQGLSNSKAAVGRVVDRAAGLGINVSLEVVNRYETNVLNTGRQALSYLSDVKRPNLGVHLDTYHMNIEESDMFSPVLDTAEALKYVHIGESHRGYLGTGSVDFDNFFKALGRIGYDGPVVFESFSSAVVAPDLSRMLGIWRNLWADNEELGAHANAFIRDKLTAIKTIELH
modifications: Arthrobacter histidinolovorans
- Residual activity (%) [1]: 65.6%
- T70/T50 [2]: 2.01

B6: Ketose 3-epimerase mutant 13: amino acid-substituted mutant of SEQ ID NO: 1 (protein)
chain: MKIGCHGLVWTGRFDAEGIRYSVQKTKEAGFDLIEFPLMDPFSFDVATAKSALAEHGLTASASLGLSEATDVSSEDPAIVKAGEELLNRALDVLAELGATDFCGVIYSAMKKYMEPATEQGLSNSKAAIGRVVDRAAGLGINVSLEVVNRYETNVLNTGRQALSYLSDVKRPNLGVHLDTYHMNIEESDMFSPVLDTAEVLKYVHIGESHRGYLGTGSVDFDNFFKALGRIGYDGPVVFESFSSAVVAPDLSRMLGIWRNLWADNEELGAHANAFIRDKLTAIKTIELH
modifications: Arthrobacter histidinolovorans
- Residual activity (%) [1]: 83.7%
- T70/T50 [2]: 1.94

B7: Ketose 3-epimerase mutant 11: amino acid-substituted mutant of SEQ ID NO: 1 (protein)
chain: MKIGCHGLVWTGRFDAEGIRYSVQKTKEAGFDLIEFPLMDPFSFDVATAKSALAEHGLTASASLGLSEATDVSSEDPAIVKAGEELLNRALDVLAELGATDFCGVIYSAMKKYMEPATEQGLSNSKAAIGRVVDRAAGLGINVSLEVVNRYETNVLNTGRQALSYLSDVKRPNLGVHLDTYHMNIEESDMFSPVLDTAEALKYVHIGESHRGYLGTGSVDFDNFFKALGRIGYDGPVVFESFSSAVVAPDLSRMLGIWRNLWADNEELGAHANAFIRDKLTAIKTIELH
modifications: Arthrobacter histidinolovorans
- Residual activity (%) [1]: 68.6%
- T70/T50 [2]: 1.95

B8: Ketose 3-epimerase mutant 12: amino acid-substituted mutant of SEQ ID NO: 1 (protein)
chain: MKIGCHGLVWTGRFDAEGIRYSVQKTKEAGFDLIEFPLMDPFSFDVATAKSALAEHGLTASASLGLSEATDVSSEDPAIVKAGEELLNRALDVLAELGATDFCGVIYSAMKKYMEPATEQGLSNSKAAIGRVVDRAAGLGINVSLEVVNRYETNVLNTGRQALSYLSDVKRPNLGVHLDTYHMNIEESDMFSPVLDTAEALKYVHIGESHRGYLGTGNVDFDNFFKALGRIGYDGPVVFESFSSAVVAPDLSRMLGIWRNLWADNEELGAHANAFIRDKLTAIKTIELH
modifications: Arthrobacter histidinolovorans
- Residual activity (%) [1]: 90.5%
- T70/T50 [2]: 1.94

B9: Ketose 3-epimerase mutant 16: amino acid-substituted mutant of SEQ ID NO: 1 (protein)
chain: MKIGCHGLVWTGRFDAEGIRYSVQKTKEAGFDLIEFPLMDPFSFDVATAKSALAEHGLSVSASLGLSEATDVSSEDPAIVKAGEELLNRALDVLAELGATEFCGVIYSAMKKYMEPATEQGLSNSKAAIGRVVDRAAGLGINVSLEVVNRYETNVLNTGRQALSYLSDVKRPNLGVHLDTYHMNIEESDMFSPVLDTAEALKYVHIGESHRGYLGTGSVDFDNFFKALGRIGYDGPVVFESFSSAVVAPDLSRMLGIWRNLWADNEELGAHANAFIRDKLTAIKTIELH
modifications: Arthrobacter histidinolovorans
- Residual activity (%) [1]: 54.0%
- T70/T50 [2]: 1.89

B10: Ketose 3-epimerase mutant 14: amino acid-substituted mutant of SEQ ID NO: 1 (protein)
chain: MKIGCHGLVWTGRFDAEGIRYSVQKTKEAGFDLIEFPLMDPFSFDVATAKSALAEHGLTASASLGLSEATDVSSEDPAIVKAGEELLNRALDVLAELGATDFCGVIYSAMKKYMEPATEQGLSNSKAAVGRVVDRAAGLGINVSLEVVNRYETNVLNTGRQALSYLSDVKRPNLGVHLDTYHMNIEESDMFSPVLDTAEVLKYVHIGESHRGYLGTGSVDFDNFFKALGRIGYDGPVVFESFSSAVVAPDLSRMLGIWRNLWADNEELGAHANAFIRDKLTAIKTIELH
modifications: Arthrobacter histidinolovorans
- Residual activity (%) [1]: 79.1%
- T70/T50 [2]: 1.91

B11: Ketose 3-epimerase mutant 10: amino acid-substituted mutant of SEQ ID NO: 1 (protein)
chain: MKIGCHGLVWTGRFDAEGIRYSVQKTKEAGFDLIEFPLMDPFSFDVATAKSALAEHGLSVSASLGLSEATDVSSEDPAIVKAGEELLNRALDVLAELGATDFCGVIYSAMKKYMEPATEQGLSNSKAAVGRVVDRAAGLGINVSLEVVNRYETNVLNTGRQALSYLSDVKRPNLGVHLDTYHMNIEESDMFSPVLDTAEALKYVHIGESHRGYLGTGNVDFDNFFKALGRIGYDGPVVFESFSSAVVAPDLSRMLGIWRNLWADNEELGAHANAFIRDKLTAIKTIELH
modifications: Arthrobacter histidinolovorans
- Residual activity (%) [1]: 79.5%
- T70/T50 [2]: 1.98
